In experiment [1] the target is SNS-101, fully human monoclonal IgG1 kappa antibody against VISTA (human). Briefly: SPR; SNS-101 captured on IgG capture chip, VISTA-His as analyte (0-30 nM), 25 C, PBS 0.05% Tween 20, pH 6.2; 1:1 Langmuir MTL fit.
For experiment [2] the target is unchanged. Nature of the experiment: SPR; SNS-101 captured on IgG capture chip, VISTA-His as analyte (0-30 nM), 25 C, PBS 0.05% Tween 20, pH 5.8; 1:1 Langmuir MTL fit. A general note: Surface plasmon resonance follows binding to a sensor surface in real time, without labels.
Experiment [3] shares this target. Briefly: SPR; SNS-101 captured on IgG capture chip, VISTA-His as analyte (0-480 nM), 25 C, PBS 0.05% Tween 20, pH 7.2; 1:1 Langmuir MTL fit.
Experiment [4] shares this target. Nature of the experiment: SPR; SNS-101 captured on IgG capture chip, VISTA-His as analyte (0-480 nM), 25 C, PBS 0.05% Tween 20, pH 7.0; 1:1 Langmuir MTL fit.
For experiment [5] the target is unchanged. Briefly: SPR; SNS-101 captured on IgG capture chip, VISTA-His as analyte (0-240 nM), 25 C, PBS 0.05% Tween 20, pH 6.6; 1:1 Langmuir MTL fit.
Experiment [6] shares this target. Nature of the experiment: SPR; SNS-101 captured on IgG capture chip, VISTA-His as analyte (0-240 nM), 25 C, PBS 0.05% Tween 20, pH 6.4; 1:1 Langmuir MTL fit.
The target is the same in experiment [7]. Briefly: SPR; SNS-101 captured on IgG capture chip, VISTA-His as analyte (0-30 nM), 25 C, PBS 0.05% Tween 20, pH 6.0; 1:1 Langmuir MTL fit.
Experiment [8] shares this target. Briefly: SPR; SNS-101 captured on IgG capture chip, VISTA-His as analyte (0-240 nM), 25 C, PBS 0.05% Tween 20, pH 6.8; 1:1 Langmuir MTL fit.
Experiment [9] has the same target. Nature of the experiment: SPR; SNS-101 captured on IgG capture chip, VISTA-His as analyte (0-480 nM), 25 C, PBS 0.05% Tween 20, pH 7.4; 1:1 Langmuir MTL fit.
Experiment [10] has as its target SNS-101, fully human monoclonal IgG1 kappa anti-VISTA antibody (human). Briefly: SPR; SNS-101 captured on IgG capture chip, VISTA-His (0-30 nM) as analyte; pH 6.0, PBS + 0.05% Tween 20, 25 °C; 1:1 Langmuir MTL fit; pH series.
For experiment [11] the target is unchanged. Nature of the experiment: SPR; SNS-101 captured on IgG capture chip, VISTA-His (0-240 nM) as analyte; pH 6.6, PBS + 0.05% Tween 20, 25 °C; 1:1 Langmuir MTL fit; pH series.
Experiment [12] shares this target. Nature of the experiment: SPR; SNS-101 captured on IgG capture chip, VISTA-His (0-480 nM) as analyte; pH 7.0, PBS + 0.05% Tween 20, 25 °C; 1:1 Langmuir MTL fit; pH series.
Experiment [13] shares this target. Nature of the experiment: SPR; panel of VISTA-His variants and wild type as analytes over captured SNS-101; pH 5.8 (PBS, 0.05% Tween-20), 25 °C.
The target is the same in experiment [14]. Nature of the experiment: SPR; SNS-101 captured on IgG capture chip, VISTA-His (0-240 nM) as analyte; pH 6.8, PBS + 0.05% Tween 20, 25 °C; 1:1 Langmuir MTL fit; pH series.
The target is the same in experiment [15]. Nature of the experiment: SPR; SNS-101 captured on IgG capture chip, VISTA-His (0-480 nM) as analyte; pH 7.4, PBS + 0.05% Tween 20, 25 °C; 1:1 Langmuir MTL fit; pH series.
Experiment [16] has the same target. Briefly: SPR; SNS-101 captured on IgG capture chip, VISTA-His (0-240 nM) as analyte; pH 6.4, PBS + 0.05% Tween 20, 25 °C; 1:1 Langmuir MTL fit; pH series.
For experiment [17] the target is unchanged. Briefly: SPR; SNS-101 captured on IgG capture chip, VISTA-His (0-30 nM) as analyte; pH 5.8, PBS + 0.05% Tween 20, 25 °C; 1:1 Langmuir MTL fit; pH series.
Experiment [18] shares this target. Nature of the experiment: SPR; SNS-101 captured on IgG capture chip, VISTA-His (0-30 nM) as analyte; pH 6.2, PBS + 0.05% Tween 20, 25 °C; 1:1 Langmuir MTL fit; pH series.
Experiment [19] shares this target. Nature of the experiment: SPR; SNS-101 captured on IgG capture chip, VISTA-His (0-480 nM) as analyte; pH 7.2, PBS + 0.05% Tween 20, 25 °C; 1:1 Langmuir MTL fit; pH series.
In experiment [20] the target is PSGL-1-19mer-Fc (19 N-terminal residues of human PSGL-1 fused to human IgG1-Fc) (human) (UniProt Q14242). Nature of the experiment: SPR; PSGL-1-19mer-Fc captured on IgG capture chip, VISTA-His (0-960 nM) as analyte; pH 6.0, PBS + 0.05% Tween-20; KD from equilibrium analysis.
Experiment [21] addresses T1, VISTA-His H98A/H100A/H154A/H155A/R159A (human, UniProt Q9H7M9, H98A | H100A | H154A | H155A | R159A).
T1 construct: VISTA, human; probably the extracellular domain; source: Expi293, purified (Ni-NTA)
Nature of the experiment: SPR; panel of VISTA-His variants and wild type as analytes over captured SNS-101; pH 5.8 (PBS, 0.05% Tween-20), 25 °C. As to conditions: both partners purified.

Experiment [22] deals with T2, C-terminal biotinylated hVISTA-Fc fusion protein (R&D Systems AVI7126-050) (human, UniProt Q9H7M9 33-194, biotin, C-terminal).
T2 construct: VISTA, human; source: bought: R&D Systems AVI7126-050
T2 sequence (looked up): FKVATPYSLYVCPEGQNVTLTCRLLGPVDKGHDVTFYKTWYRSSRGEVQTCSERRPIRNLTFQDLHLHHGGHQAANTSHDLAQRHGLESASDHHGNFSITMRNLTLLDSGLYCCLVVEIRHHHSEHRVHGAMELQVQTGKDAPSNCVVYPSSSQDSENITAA
Nature of the experiment: ELISA; partner proteins coated at 5 µg/ml, biotinylated hVISTA-Fc serially diluted in 1% NFDM in PBS at pH 6.0; HRP-streptavidin. Conditions: both partners purified. Background: ELISA stands for enzyme-linked immunosorbent assay.

Broadly, the Kd is the concentration at which binding is half-saturated. The koff is the rate constant with which the complex falls apart. One may read the kon as the rate constant with which the complex forms.

PSGL-1-19mer-Fc (19 N-terminal residues of human PSGL-1 fused to human IgG1-Fc) (human), sequence (Q14242 42-412): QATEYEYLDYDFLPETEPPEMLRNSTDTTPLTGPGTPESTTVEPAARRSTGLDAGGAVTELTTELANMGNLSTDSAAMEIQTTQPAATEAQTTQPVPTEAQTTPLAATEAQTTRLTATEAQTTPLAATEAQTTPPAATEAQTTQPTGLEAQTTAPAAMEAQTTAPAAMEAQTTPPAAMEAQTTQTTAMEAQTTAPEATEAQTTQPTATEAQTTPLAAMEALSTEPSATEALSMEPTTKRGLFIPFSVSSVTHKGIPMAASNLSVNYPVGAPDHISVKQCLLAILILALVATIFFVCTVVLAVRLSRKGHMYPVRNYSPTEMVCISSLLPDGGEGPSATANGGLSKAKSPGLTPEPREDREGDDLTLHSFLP

Turning to “VISTA-His (human VISTA, V-domain immunoglobulin suppressor of T-cell activation, with His tag) (from UniProt Q9H7M9 33-311) (natural protein)”, the Kd in experiment [1] amounted to 1.78 nM; in experiment [3] it was 134 nM; in experiment [4] it was 77 nM; in experiment [5] it was 18.5 nM; in experiment [6], 5.96 nM; in experiment [7], 0.779 nM. Besides, the Kd in experiment [8] was 40.1 nM. In addition, the koff turned out to be 0.00219 s⁻¹ in experiment [1]; 0.00129 s⁻¹ in experiment [2]; 0.0147 s⁻¹ in experiment [3]; 0.0101 s⁻¹ in experiment [4]; 0.00566 s⁻¹ in [5]; 0.00321 s⁻¹ in experiment [6]. Moreover, the koff in [7] was 0.00213 s⁻¹; in [8], 0.00842 s⁻¹; in [9], 0.0308 s⁻¹. For the same molecule, the kon amounted to 1.23e+06 M⁻¹ s⁻¹ in [1]; 3.68e+06 M⁻¹ s⁻¹ in [2]; 110000 M⁻¹ s⁻¹ in [3]; 131000 M⁻¹ s⁻¹ in experiment [4]; 306000 M⁻¹ s⁻¹ in [5]; 539000 M⁻¹ s⁻¹ in experiment [6]. The kon was determined as 2.74e+06 M⁻¹ s⁻¹ in experiment [7], 210000 M⁻¹ s⁻¹ in experiment [8] and 87200 M⁻¹ s⁻¹ in experiment [9].

“VISTA-His (wild-type human VISTA) (from UniProt Q9H7M9 33-311) (natural protein)”: the Kd in experiment [10] amounted to 0.779 nM; in experiment [11], 18.5 nM; in [12], 77 nM; in experiment [13], 0.7 nM; in experiment [14], 40.1 nM; in experiment [16] it was 5.96 nM. Besides, the figures for the dissociation constant (Kd) in [18], in [19] and in [20] were 1.78 nM, 134 nM and 600 nM, respectively. Besides, the koff in experiment [10] was determined as 0.00213 s⁻¹; in [11], 0.00566 s⁻¹; in experiment [12], 0.0101 s⁻¹; in [13], 0.0022 s⁻¹; in experiment [14] it was 0.00842 s⁻¹; in experiment [15], 0.0308 s⁻¹. Further, the koff came out at 0.00321 s⁻¹ in [16], 0.00129 s⁻¹ in experiment [17], 0.00219 s⁻¹ in experiment [18] and 0.0147 s⁻¹ in [19]. Also, the kon is 2.74e+06 M⁻¹ s⁻¹ in [10]; 306000 M⁻¹ s⁻¹ in [11]; 131000 M⁻¹ s⁻¹ in [12]; 3.2e+06 M⁻¹ s⁻¹ in [13]; 210000 M⁻¹ s⁻¹ in [14]; 87200 M⁻¹ s⁻¹ in experiment [15]. Besides, the kon in experiment [16] amounted to 539000 M⁻¹ s⁻¹; in experiment [17], 3.68e+06 M⁻¹ s⁻¹; in [18] it was 1.23e+06 M⁻¹ s⁻¹; in experiment [19], 110000 M⁻¹ s⁻¹.

B1: SNS-101, fully human monoclonal IgG1 kappa anti-VISTA antibody (antibody, V domains shown)
VH: EVQLVESGGGLVQPGGSLRLSCAASGFTFDDYSMNWVRQAPGKGLEWVSYISSDADTIYYADSVKGRFTISRDNAKNSLYLQMNSLRAEDTAVYYCAREAGGVLGRVDFQHWGQGTLVTVSS
VL: DIQLTQSPSSLSASVGDRVTITCQASQDISNYLNWYQQKPGKAPKLLIYDASNLGTGVPSRFSGSGSGTDFTFTISSLQPEDIATYYCQQADFVPPWTFGGGTKVEIK
notes: the Fab part is in PDB 8TBQ; human IgG1 heavy chain; the light chain is in PDB 8TBQ; human kappa light chain; IgG1 kappa; captured on an IgG capture sensor chip in SPR; source: ExpiCHO, transient transfection, purified (Protein A)
Take B1: in experiment [21], the Kd is above 960 nM.

B2: hSyndecan-2 (R&D Systems 2965-SD) (natural protein, human, UniProt P34741 19-144, looked up)
chain: ESRAELTSDKDMYLDNSSIEEASGVYPIDDDDYASASGSGADEDVESPELTTSRPLPKILLTSAAPKVETTTLNIQNKIPAQTKSPEETDKEKVHLSDSERKMDPAEEDTNVYTEKHSDSLFKRTE
notes: Syndecan-2, human; source: bought: R&D Systems 2965-SD
On to B2, for which, in experiment [22], the binding result is reported as “binds”.

For the origin of these results see article PMC10995192 (Nature Communications, 2024).
